# B1: TPR t1 (parent)
# chain: GACCAAUCUGCCCUCAGAGCUCGAGAACAUCUUCGGAUGCAGAGGAGGCAGGCUUCGGUGGCGCGAUAGCGCCAACGUCCUCAACCUCCAAUGCAUCCCACCACAUGAUGAUGCCUGAAGAGCCUUGGUUUUUUG
# Variants of: B1
# Assay: polymerase ribozyme fitness, log enrichment relative to wild type (log ratio); higher = more active; in vitro selection for triplet polymerase activity
# Outline: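 For each subunit of a heterodimeric triplet polymerase ribozyme, a mutant library was built by PCR and transcribed, then taken through a single in vitro selection round in triplicate. Selection involved annealing to a biotinylated primer, the partner subunit and triplets, incubation frozen at −7 °C, gel excision of extended constructs, capture on streptavidin beads and RT-PCR. Genotypes were retained after Illumina sequencing of inputs and outputs only with ≥10 input reads and ≥1 read in each output. Fitness is defined as the logarithm of a genotype's enrichment relative to wild-type enrichment, using inverse-variance-weighted averages across replicates, with the logarithm taken to base 2.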
row,Variant,polymerase ribozyme fitness (log ratio)
1,G48U G58U G60U C82G,0.276
2,C49A G61A G127C G135C,-0.458
3,G48A C62A C82A C85G G110C U133A,-7.12
4,G48A C72G A103U A119G,-3.79
5,G48A G113A,-1.61
6,C49A A50C,-0.838
7,G48A C53A U59G G61C C79U C101A U126A,-3.84
8,G48C C49A U55C G61A A95G G110A,-2.85
9,C49A A66C U87A,-1.04
10,G48U U109C,-4.94
11,G48A G60U C104A,-1.82
12,C49A C94U,0.159
13,G48C C70U,-0.829
14,C49A G71U,-0.754
15,G48U U55G G61U,-0.0419
16,G48C G52A C102A A111C A119U,-4.33
17,G47U U92G G117C,-7.27
18,C49A A103C,-5.44
19,C49A G63U G65C G120C,-6.43
20,G48U G63U C72U C86A A91C,-5.91
21,G48U U54G G58C U129A,-2.45
22,C49A G52C G60A U112G G127C,-2.8
23,G48C C73G G93A C124A,-1.39
24,C49A C101G C115A G120A,-2.2

row,Variant,polymerase ribozyme fitness (log ratio)
1,G48C C56A C72A U78A,-1.06
2,G48A C85U,-0.302
3,G48U C62G A91U C123U U125A,-5.93
4,G48C G60U,-2.22
5,G48C C56U C101A U112C G135C,-0.346
6,C49A C72U U109C U112A A121C,-6.03
7,G48U A50G G58C G117U G122A,-4.46
8,G48C G71A A108G U112C G117U,-6.18
9,G48C C72G,-0.77
10,G48A C70U C115A,-1.87
11,G48U C56G C80G,-3.4
12,C49A C73A C88U A91U C124U,-0.744
13,G47U U81A G122U C123U U130C U131A,-2.99
14,G48C A83G G122U,-1.4
15,G48C,-0.943
16,G48U,-0.903
17,G48A,-0.658
18,G48A G63C C72U C124G,-0.71
19,C49A C73U C88U C94U C123U U132G G135U,-1.74
20,G48A G63A C86U U116A C124U,-2.18
21,G48A C53A U59G G61C,-0.194
22,G48A U59C C82A G93C U116G U131A,-4.51
23,G48U C72A,-0.467
24,C49A G71U U78A G120C,0.393

row,Variant,polymerase ribozyme fitness (log ratio)
1,G48A C62A C73U,-3.55
2,G48A A66U U78G,-1.56
3,G48C U116G,-3.09
4,G48C C115A,-1.84
5,G48A C49G C56U,-0.3
6,G48U U96C U116A A121U,-1.06
7,C49A C56A G63A A75U A83C G113U C123G G127A,-5.69
8,G48A G69A,-4.63
9,C49A G93C U112A,0.173
10,G48A G117U,-2.2
11,G48A U96A C104U U131A,-1.66
12,G48C A83U A108G,-1.66
13,G48U U87G C115G,-0.14
14,G48U A50G,-1.02
15,G48A G63U C101A,-2.69
16,G48C A83U U87A,-0.806
17,C49A C64U U129C U133C,-0.175
18,G48C G69U,-0.209
19,G48A G77A C88U,-0.845
20,G48U G69U G135A,-1.62
21,G48A U54G C85U,-0.681
22,G48C C79A,-3.15
23,G48A U106C,0.21
24,G48A G63U,-0.443

row,Variant,polymerase ribozyme fitness (log ratio)
1,G48C C72G C104A G120C G128A,-4.3
2,G48A G63C C82G G113U U132A,-3.71
3,G48U C79A U112A,-2.84
4,G48A G77U,-2.11
5,C49A G69U U81A C89A G93U C115G C123G,-2.93
6,G48A C123G,0.439
7,G48U G107U A111C C123A,-5.41
8,G48U U92C G120A G127C U134G,-1.91
9,G48C U78C G120C C124G,0.298
10,G48U C123A U126A,-2.05
11,G48U U54C C101U U130G,-1.13
12,G48A U54A A84U U129A,-1.42
13,C49A G60C G127A U131A,-3.76
14,C49A C73A G93U,-1.28
15,G48A G122C C123G G127A,-2.37
16,G48A G63A U92C,-3.14
17,G48U A84C C114U U116G U132A,-7.04
18,G48A C64U C73A,-0.705
19,G48C C49A C56U G93U,-1.8
20,G48C C85U G117U,-3.32
21,C49A G52C U96C,-0.622
22,G48U C49U C72A C73A U131C,-2.61
23,G48A C56U C70A,-4.74
24,G48A C115U C124U,-1.31

row,Variant,polymerase ribozyme fitness (log ratio)
1,G48U G93A,-0.946
2,C49A A90U,-0.956
3,C49A A90C,-1.35
4,G48A C73U A119G,0.718
5,G48U C49G,-0.587
6,G48U C49U G71C C86A,-2.67
7,C49A C64U C123U,0.702
8,C49A G52U G71C,-1.75
9,G48U C89A,-1.52
10,C49A G51C A100C U132A,-5.52
11,G48C U106C,-1
12,G48C U106G,-1.5
13,G48C C49G C72U C97U U116G,-2.86
14,G47U U78G G135A,-1.83
15,C49A C53A C86A U112G G128A,-3.85
16,G47U U78G,-1.6
17,G48U C56G C64U C101A,-2.95
18,G48C A95G U129C,-1.6
19,G48U C82U,-1.32
20,G48A U92A U106A,-3.9
21,G48U C62U A84C C115A,-1.79
22,G48C G128A,-3.43
23,C49A A91G,-1.63
24,C49A G63U G117A,-3.12

row,Variant,polymerase ribozyme fitness (log ratio)
1,G48C U78A,-0.274
2,G48U G57C U96A,-1.49
3,C49A C56A U130C,-0.746
4,G48U G113A,-1.18
5,G48A C70A G120U G128A G135A,-2.26
6,G48A G52A G60A C73U C82G C88U C102G,-5.86
7,G48C U55G C62A C79U A84C C85G G93U C124A,-0.918
8,G48U C72U C73A G127A G135C,-1.64
9,G48U G110U,-2.84
10,G48U A121U,0.519
11,C49A A91C C97G C99U G113A,-7.59
12,G48U C49G G63U,-1.73
13,G47U U96A,-2.1
14,G47U U87A,-2.55
15,C49A G57A G110C,-6.31
16,G48C G77A U130G,-2.05
17,G48A G71C A105C,-4.88
18,G48U U59A U116C C124U,-0.336
19,C49A C53A U116C,-1.16
20,G48U C88A A91C,-2.5
21,C49A C82A,-1.17
22,G48U G69A G135U,-5.98
23,G48U G120U,-0.428
24,G48U U54C G71U U116C G122U,-2.51

row,Variant,polymerase ribozyme fitness (log ratio)
1,G48U C99U,-3.34
2,G48A G60U,-0.531
3,G48A G52U U55C U125A,-2.1
4,G48A C89A,-1.71
5,C49A A83C,-1.24
6,G48A G127C,-2.52
7,G48U C64U G120A C123U,0.28
8,G48U G117C,-4.06
9,G48A G58A U78C G110A,-1.9
10,G48U C62A,-1.81
11,G48U C62G,-3.39
12,C49A C72G,-0.887
13,C49A C79G A103G U112G C114U U116C,-7.2
14,C49A C102A A121U G122U U133C,-0.655
15,C49A A91C G127A,-3.35
16,G48A C70U,-1.3
17,C49A C124U,0.812
18,G48C U81A G127C,-3.51
19,G48A U132A,-0.715
20,G48U U92A,-3.38
21,G48A C53U G63U G110A,-3.27
22,G48A G63A C101A,-2.45
23,C49A C85A G93C U106A,-1.01
